Literature values as cited in patent publication US8217152B2, “Process for the purification of IL-18 binding protein” (Ares Trading S.A., priority 2005, dated 2012).

Tests used:
IL-18 = target: T1, IL-18 (Homo sapiens, UniProt Q14116); conditions: Kim et al. 2000; read-out: dissociation constant (Kd) for IL-18
T1 sequence (Q14116 37-193): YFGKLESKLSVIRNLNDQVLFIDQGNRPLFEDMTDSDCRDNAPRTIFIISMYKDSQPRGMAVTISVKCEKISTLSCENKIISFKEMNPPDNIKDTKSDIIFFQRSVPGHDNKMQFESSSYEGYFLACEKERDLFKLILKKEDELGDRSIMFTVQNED

IL-18 induction of IFN-γ = conditions: in vitro
[1] = test system: IL-18 activation of NF-κB; conditions: in vitro
induction of IFN-γ = conditions: mice injected with LPS

Kd (IL-18): 0.4 nM
B1: IL-18BP: naturally occurring soluble protein that binds IL-18 (protein, UniProt O95998 31-194, looked up)
Interleukin-18-binding protein: TPVSQTTTAATASVRSTKDPCPSQPPVFPAAKQCPALEVTWPEVEVPLNGTLSLSCVACSRFPNFSILYWLGNGSFIEHLPGRLWEGSTSRERGSTGTQLCKALVLEQLTPALHSTNFSCVLVDPEQVVQRHVVLAQLWAGLRATLPPTQEALPSSHSSPQQQG
effect on IL-18 induction of IFN-γ (IL-18 induction of IFN-γ): abolishes
effect on IL-18 activation of NF-κB [1]: abolishes
effect on induction of IFN-γ (induction of IFN-γ): inhibits
